From IntAct's records for PubMed 20676133

B1: RING finger protein 11 (Homo sapiens), Q9Y3C5 (parent)
chain: MGNCLKSPTSDDISLLHESQSDRASFGEGTEPDQEPPPPYQEQVPVPVYHPTPSQTRLATQLTEEEQIRIAQRIGLIQHLPKGVYDPGRDGSEKKIRECVICMMDFVYGDPIRFLPCMHIYHLDCIDDWLMRSFTCPSCMEPVDAALLSSYETN

Variants of: B1
Details: with itch_human ITCH

effect of a mutation on the interaction | Variant
disrupting interaction | MGNCLKSPTSDDISLLHESQSDRASFGEGTEPDQEPPPPAQEQVPVPVYHPTPSQTRLATQLTEEEQIRIAQRIGLIQHLPKGVYDPGRDGSEKKIRECVICMMDFVYGDPIRFLPCMHIYHLDCIDDWLMRSFTCPSCMEPVDAALLSSYETN

Variants of: B1
Details: with nedd4_human NEDD4, P46934
nedd4_human NEDD4, P46934, sequence (P46934 whole entry): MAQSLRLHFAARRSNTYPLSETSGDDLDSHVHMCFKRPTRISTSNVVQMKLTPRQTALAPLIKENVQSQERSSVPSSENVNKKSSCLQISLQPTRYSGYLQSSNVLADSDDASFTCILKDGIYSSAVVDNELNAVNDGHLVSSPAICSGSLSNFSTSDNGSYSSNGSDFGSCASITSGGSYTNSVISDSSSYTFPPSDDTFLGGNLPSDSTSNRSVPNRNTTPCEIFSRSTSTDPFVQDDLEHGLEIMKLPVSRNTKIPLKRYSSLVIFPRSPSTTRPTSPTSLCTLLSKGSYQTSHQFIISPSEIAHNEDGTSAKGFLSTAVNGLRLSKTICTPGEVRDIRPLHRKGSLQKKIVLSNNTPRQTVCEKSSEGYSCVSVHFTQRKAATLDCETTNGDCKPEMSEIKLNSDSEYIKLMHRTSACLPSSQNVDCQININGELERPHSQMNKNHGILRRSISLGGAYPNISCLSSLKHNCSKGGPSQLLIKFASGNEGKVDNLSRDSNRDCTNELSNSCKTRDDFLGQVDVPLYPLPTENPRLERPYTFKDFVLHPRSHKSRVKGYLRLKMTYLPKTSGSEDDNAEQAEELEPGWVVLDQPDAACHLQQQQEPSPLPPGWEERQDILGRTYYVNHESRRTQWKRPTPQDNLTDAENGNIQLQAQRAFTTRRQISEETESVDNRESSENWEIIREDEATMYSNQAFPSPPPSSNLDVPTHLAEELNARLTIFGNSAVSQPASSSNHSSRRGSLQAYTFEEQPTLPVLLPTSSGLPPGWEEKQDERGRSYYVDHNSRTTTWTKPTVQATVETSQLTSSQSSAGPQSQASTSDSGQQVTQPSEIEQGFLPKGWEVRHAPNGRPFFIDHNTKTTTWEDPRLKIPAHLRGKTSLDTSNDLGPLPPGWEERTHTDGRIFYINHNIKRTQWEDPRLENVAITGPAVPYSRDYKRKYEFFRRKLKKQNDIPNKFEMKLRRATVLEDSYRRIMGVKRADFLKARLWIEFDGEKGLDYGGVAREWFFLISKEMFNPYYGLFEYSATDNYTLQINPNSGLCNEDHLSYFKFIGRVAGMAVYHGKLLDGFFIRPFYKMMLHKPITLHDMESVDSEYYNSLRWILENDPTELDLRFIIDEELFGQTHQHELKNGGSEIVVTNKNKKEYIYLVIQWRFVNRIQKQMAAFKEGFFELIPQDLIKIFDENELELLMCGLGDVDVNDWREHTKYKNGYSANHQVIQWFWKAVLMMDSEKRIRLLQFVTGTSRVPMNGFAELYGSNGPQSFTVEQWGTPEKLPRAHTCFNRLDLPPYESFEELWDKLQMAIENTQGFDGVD

effect of a mutation on the interaction | Variant
disrupting interaction | MGNCLKSPTSDDISLLHESQSDRASFGEGTEPDQEPPPPAQEQVPVPVYHPTPSQTRLATQLTEEEQIRIAQRIGLIQHLPKGVYDPGRDGSEKKIRECVICMMDFVYGDPIRFLPCMHIYHLDCIDDWLMRSFTCPSCMEPVDAALLSSYETN

Variants of: B1
Details: with smuf2_human SMURF2, Q9HAU4
smuf2_human SMURF2, Q9HAU4, sequence (Q9HAU4 whole entry): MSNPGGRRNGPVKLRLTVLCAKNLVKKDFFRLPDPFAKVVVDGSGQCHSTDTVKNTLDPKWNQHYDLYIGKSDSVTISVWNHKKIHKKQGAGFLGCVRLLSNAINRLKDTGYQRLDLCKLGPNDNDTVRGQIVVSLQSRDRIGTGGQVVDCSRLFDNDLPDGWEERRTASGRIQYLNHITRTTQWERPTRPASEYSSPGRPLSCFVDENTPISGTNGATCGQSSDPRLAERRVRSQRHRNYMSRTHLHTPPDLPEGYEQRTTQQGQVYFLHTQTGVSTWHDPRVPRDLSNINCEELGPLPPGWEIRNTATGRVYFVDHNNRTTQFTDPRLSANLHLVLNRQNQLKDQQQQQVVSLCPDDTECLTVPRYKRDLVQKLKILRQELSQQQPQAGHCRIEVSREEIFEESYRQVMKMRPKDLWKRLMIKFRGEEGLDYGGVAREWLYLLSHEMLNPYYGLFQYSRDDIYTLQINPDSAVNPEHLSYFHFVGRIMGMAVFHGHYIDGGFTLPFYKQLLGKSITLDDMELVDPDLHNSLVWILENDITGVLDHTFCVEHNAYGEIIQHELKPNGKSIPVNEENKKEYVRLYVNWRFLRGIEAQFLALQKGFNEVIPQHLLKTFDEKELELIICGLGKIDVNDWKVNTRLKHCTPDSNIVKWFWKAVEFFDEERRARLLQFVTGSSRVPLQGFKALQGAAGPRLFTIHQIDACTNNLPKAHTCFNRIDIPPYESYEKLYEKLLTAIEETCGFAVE

effect of a mutation on the interaction | Variant
disrupting interaction | MGNCLKSPTSDDISLLHESQSDRASFGEGTEPDQEPPPPAQEQVPVPVYHPTPSQTRLATQLTEEEQIRIAQRIGLIQHLPKGVYDPGRDGSEKKIRECVICMMDFVYGDPIRFLPCMHIYHLDCIDDWLMRSFTCPSCMEPVDAALLSSYETN
